Patent US20030124121A1 (IMMUNEX, published 2003)

B1: MAb 12B5 (antibody, human IgG1, V domains shown)
VH: EVQLVQSGGGLVHPGGSLRLSCAGSGFTFSRNAMFWVRQAPGKGLEWVSGIGTGGATNYADSVKGRFTISRDNAKNSLYLQMNSLRAEDMAVYYCARGRYYFDYWGQGTLVTVSS
VL: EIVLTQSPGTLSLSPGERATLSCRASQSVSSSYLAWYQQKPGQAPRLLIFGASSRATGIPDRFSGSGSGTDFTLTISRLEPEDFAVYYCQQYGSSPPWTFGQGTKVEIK
notes: also called clone 12B5
B2: MAb 27A1 (antibody, IgG1, V domains shown)
VH: QVQLVESGGGVVQPGRSLRLSCSASGFTFSRYGMHWVRQAPGRGLEWVAIIWFEGNNQYYADSVKGRFTVSRDNSKNTLYLEMNSLRAEDTAVYYCARGKYYFDYWGQGTLVTVSS
VL: not shown
notes: Fully human antibody
B3: MAb 5A1 (antibody, IgG1, V domains shown)
VH: EVQLVQSGGGLVHPGGSLRLTCAGSGFTFSNFVMHWVRQTPGQGLEWVSAIGTGGGTYYADSVKGRFTISRDNAKSSLYLQMNSLRAEDMAVYYCARDRPMVRGVIIDYFDYWGQGTLVTVSS
VL: EIVLTQSPATLSLSPGERATLSCRASQSVSSYLAWYQQKPGQAPRLLIYHASNRATGIPARFSGSGSGTDFTLTISSLEPEDFAVYYCQQRSNWPLTFGGGTKVEIK
notes: Fully human antibody
B4: MAb 63 (antibody, IgM, V domains shown)
VH: EVQVLESGGNLVQPGGSLRLSCAASGFTFSSYAMSWVRQAPGKGLEWVSSITGSGGSTYYADSVKGRFTISRDNSKNTLYLQMNSLRAEDTAIFYCAKDNRGFFHYWGQGTLVTVSS
VL: DIQMTQSPSSVSASVGDRVTITCRASQGISTWLAWYQHKPGKAPKLLIYVASSLQSGVPSRFSGSGSGTDFTLTISSLQPEDFATYYCQQANSFPFTFGPGTKVDIK
notes: Fully human antibody
B5: MAb 1B7 (antibody, V domains shown)
VH: B4 VH
VL: EIVLTQSPSSVSASVGDRVTITCRASQGISNRLAWYQQKPGKAPKLLIYIASILQRGVPSRFSGSGSGTDFTLTITRLQPEDFATYYCQQANSFPFTFGPGTKVDIK
notes: Derived from MAb 63; differs from it only in the light chain; heavy chain identical to MAb 63

Columns and labels:
human IL-4 receptor [1] = target: T1, human IL-4 receptor (human, UniProt P24394 26-232, limits assumed); test: hybridoma screen for human gamma/kappa specific to IL-4R
T1 construct: extracellular domain is 1 to 207 or -2 to 207 in that numbering; also called huIL-4R; IL-4Ralpha
Source text: The mouse was sacrificed, and spleen cells were extracted and fused with the murine myeloma cell line P3x63Ag8.653 (ATCC CRL 1580). A conventional PEG fusion protocol was followed. The fusion was screened for HuIgG and HuKappa, followed by a rescreen for human gamma and kappa specific to IL-4R. […] Techniques for altering (switching) the subclass/isotype of an antibody are known. […] Sequence information for a human IgG4 heavy chain is presented, for example, in Ellison et al. (DNA Vol. 1, no. 1, pp 11-18, 1981), which is hereby incorporated by reference herein.

human IL-4 receptor [2] = target: T1, human IL-4 receptor; test: hybridoma identification; assay not described
human IL-4 receptor [3] = target: T1, human IL-4 receptor; test: assay not described

Row | Binder | binding result (human IL-4 receptor [2]) | also measured
1 | B1 |  | binding result (human IL-4 receptor [1]): binds
2 | B2 | binds | 
3 | B3 | binds | 
4 | B4 | binds | 
5 | B5 |  | binding result (human IL-4 receptor [3]): binds
